Key:
[1] = biological target: full-length Kluyveromyces lactis (Kl) Kap123, wild type (Kluyveromyces lactis); experiment: SPR; wild-type Kl Kap123 immobilised on a CM5 chip (10 mM acetate pH 4.0); wild-type or mutant H3 or H4 peptides injected at 30 μl/min in binding buffer (10 mM HEPES, 150 mM NaCl); 7°C
MBP-tagged Kap123 = experiment: amylose affinity pull-down competition assay; conditions: pre-assembled MBP-Kap123 and H3 1-59-Sumo, value at 0X set to 1.0, read off a plot
Sequence of MBP-tagged Kap123 (chain, as listed by the source): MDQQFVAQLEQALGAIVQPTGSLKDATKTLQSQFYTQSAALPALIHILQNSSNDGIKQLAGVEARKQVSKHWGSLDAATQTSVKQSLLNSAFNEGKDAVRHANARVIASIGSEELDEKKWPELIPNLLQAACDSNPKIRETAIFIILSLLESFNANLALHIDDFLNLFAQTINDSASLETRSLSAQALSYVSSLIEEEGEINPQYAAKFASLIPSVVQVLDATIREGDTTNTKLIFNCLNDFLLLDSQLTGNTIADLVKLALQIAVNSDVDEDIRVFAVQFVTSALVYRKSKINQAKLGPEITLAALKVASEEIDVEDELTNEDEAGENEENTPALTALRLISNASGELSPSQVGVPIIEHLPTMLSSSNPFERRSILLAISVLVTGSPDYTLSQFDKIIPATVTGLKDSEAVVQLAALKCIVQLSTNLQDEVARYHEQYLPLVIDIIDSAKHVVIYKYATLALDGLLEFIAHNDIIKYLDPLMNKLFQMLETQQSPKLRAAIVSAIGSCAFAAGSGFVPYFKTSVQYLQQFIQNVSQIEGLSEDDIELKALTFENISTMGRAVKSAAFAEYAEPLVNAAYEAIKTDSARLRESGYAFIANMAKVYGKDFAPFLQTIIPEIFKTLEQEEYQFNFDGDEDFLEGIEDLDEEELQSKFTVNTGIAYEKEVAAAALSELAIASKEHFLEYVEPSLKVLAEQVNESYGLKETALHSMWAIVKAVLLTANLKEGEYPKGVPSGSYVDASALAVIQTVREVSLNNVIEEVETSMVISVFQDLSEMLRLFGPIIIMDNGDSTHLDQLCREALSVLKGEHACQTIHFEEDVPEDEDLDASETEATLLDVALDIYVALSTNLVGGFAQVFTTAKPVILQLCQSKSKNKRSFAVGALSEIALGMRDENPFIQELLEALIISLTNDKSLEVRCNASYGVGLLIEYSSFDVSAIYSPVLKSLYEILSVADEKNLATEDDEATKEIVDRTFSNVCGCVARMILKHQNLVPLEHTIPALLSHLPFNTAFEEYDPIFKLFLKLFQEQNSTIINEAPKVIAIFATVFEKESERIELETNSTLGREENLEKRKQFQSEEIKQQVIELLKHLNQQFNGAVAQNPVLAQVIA

## wild-type H3_(1–35)-NLS peptide (injected as analyte) (from UniProt P61830 2-36)
[1]
  fold affinity relative to H4-NLS: 5 fold

## C-terminal Sumo-tagged histone H4_(1–48), P02309 K5Q; K8Q; K12Q
MBP-tagged Kap123; competitor at 1X, parent: est. 0.88
  other: relative intensity of H3 1-59-Sumo remaining bound to Kap123 after competition: 0.99
MBP-tagged Kap123; competitor at 2X, parent: est. 0.67
  other: relative intensity of H3 1-59-Sumo remaining bound to Kap123 after competition: 0.99
MBP-tagged Kap123; competitor at 5X, parent: est. 0.32
  other: relative intensity of H3 1-59-Sumo remaining bound to Kap123 after competition: 0.94
MBP-tagged Kap123; competitor at 10X, parent: est. 0.13
  other: relative intensity of H3 1-59-Sumo remaining bound to Kap123 after competition: 0.96
